Assay results reported in article PMC8031885, “Targeted mutagenesis on PDGFRα-Fc identifies amino acid modifications that allow efficient inhibition of HCMV infection while abolishing PDGF sequestration” (PLoS Pathogens, 2021).
Changes are numbered by the printed parent chain. Numbers in names are those of the source.

B1: PDGFRα-Fc wild type (Fc fusion)
chain: QLSLPSILPNENEKVVQLNSSFSLRCFGESEVSWQYPMSEEESSDVEIRNEENNSGLFVTVLEVSSASAAHTGLYTCYYNHTQTEENELEGRHIYIYVPDPDVAFVPLGMTDYLVIVEDDDSAIIPCRTTDPETPVTLHNSEGVVPASYDSRQGFNGTFTVGPYICEATVKGKKFQTIPFNVYALKATSELDLEMEALKTVYKSGETIVVTCAVFNNEVVDLQWTYPGEVKGKGITMLEEIKVPSIKLVYTLTVPEATVKDSGDYECAARQATREVKEMKKVTISVHEKGFIEIKPTFSQLEAVNLHEVKHFVVEVRAYPPPRISWLKNNLTLIENLTEITTDVEKIQEIRYRSKLKLIRAKEEDSGHYTIVAQNEDAVKSYTFELLTQVPSSILDLVDDHHGSTGGQTVRCTAEGTPLPDIEWMICKDIKKCNNETSWTILANNVSNIITEIHSRDRSTVEGRVTFAKVEETIAVRCLAKNLLGAENRELKLVAPTLRSELTVA
B2: PDGFRα-Fc I139E + V242K (Fc fusion)
chain: B1 chain with I116E, V219K
B3: PDGFRα-Fc I139A + Y206A (Fc fusion)
chain: B1 chain with I116A, Y183A
B4: PDGFRα-Fc Y206S + V242K (Fc fusion)
chain: B1 chain with Y183S, V219K
B5: PDGFRα-Fc I139E + Y206S (Fc fusion)
chain: B1 chain with I116E, Y183S
B6: PDGFRα-Fc Y206S (Fc fusion)
chain: B1 chain with Y183S
B7: PDGFRα-Fc I139E (Fc fusion)
chain: B1 chain with I116E
B8: PDGF-BB (ligand, UniProt P01127 82-190, looked up)
chain: SLGSLTIAEPAMIAECKTRTEVFEISRRLIDRTNANFLVWPPCVEVQRCSGCCNNRNVQCRPTQVQLRPVQVRKIEIVRKKPIFKKATVTLEDHLACKCETVAAARPVT
modifications: NT-647 dye on amines (amine reactive labelling kit RED-NHS) in the MST experiments; unlabelled in the signalling assays
notes: PDGF-B chain of dimeric PDGF-BB, bought recombinant protein; also called dimeric PDGF-BB; source: bought: R&D # 220-BB

Legend:
[1] = target: T1, gH/gL/gO trimer of HCMV TB40-BAC4 (human cytomegalovirus, strain TB40/E …); test: cell-based or functional assay
[2] = target: T1, gH/gL/gO trimer of HCMV TB40-BAC4; test: cell-based or functional assay; remark: listed apart in the source
PDGF-BB = target: B8; test: cell-based or functional assay
[3] = target: T1, gH/gL/gO trimer of HCMV TB40-BAC4; test: cell-based or functional assay; remark: listed apart in the source
PDGFRα-Fc I139A + Y206A = target: B3; test: MST; Monolith NT.115 Pico; read-out: dose-dependent photo-bleaching (fluorescence quenching) rate in a prolonged initial fluorescence segment (5 s) before the thermophoresis segment; 0.1 nmol/l NT-647-labelled PDGF-BB constant, PDGFRα-Fc variants in 16 concentrations over 5 log steps; 60% excitation power; one site binding model; IgG elution buffer neutralised with 0.1 M Tris pH 8.0, 0.025% Tween-20, 50 mM NaCl; 25°C; details: both partners purified
PDGFRα-Fc wild type = target: B1; test: as above; details: both partners purified
PDGFRα-Fc Y206S = target: B6; test: as above; details: both partners purified
PDGFRα-Fc I139E = target: B7; test: as above; details: both partners purified
PDGFRα-Fc I139E + Y206S = target: B5; test: MST; Monolith NT.115 Pico; read-out: dose-dependent changes of MST traces (F1 over F0; MST-on time 4-5 s in Fig 7, 1.5-2.5 s in Fig 10A); 0.1 nmol/l NT-647-labelled PDGF-BB constant, PDGFRα-Fc titrated; 60% excitation power; 0.025% Tween-20, 50 mM NaCl; 25°C; details: both partners purified
PDGFRα-Fc V242K = target: T2, PDGFRα-Fc V242K (UniProt P16234-1 24-528, V242K); test: as above; details: both partners purified
T2 construct: PDGFRα (CD140a), extracellular domain, aa 24 to 528, NCBI XP_005265800; Point mutant of m1; also called V242K single mutant; source: HEK 293 F suspension cells, transiently transfected (PEI), purified from the medium with Protein A beads

## B1
[1]
  HCMV inhibition EC50 (TB40-BAC4-IE-GLuc, fibroblasts, immediate-early antigen staining): 0.0056 µg/mL
[2]
  HCMV inhibition EC50 (Table 2; differs from Table 1): 0.0046 µg/mL
PDGF-BB
  EC50 for inhibition of PDGF signaling (6 ng/ml PDGF-BB, phospho-Akt ELISA, fibroblasts): 0.013 µg/mL
[3]
  EC50 of inhibition of HCMV TB40-BAC4-IE-GLuc infection of fibroblasts (Gaussia luciferase read-out): < 0.02 µg/mL
  EC50 of inhibition of HCMV TB40-BAC4 infection of fibroblasts and of endothelial cells (immediate-early antigen staining): ~0.01 µg/mL

## B2
[3]
  HCMV inhibition EC50 (fibroblasts, immediate-early antigen staining): 0.027 µg/mL

## B3
[1]
  HCMV inhibition EC50 (TB40-BAC4-IE-GLuc, fibroblasts, immediate-early antigen staining): 0.0198 µg/mL

## B4
[3]
  HCMV inhibition EC50 (fibroblasts, immediate-early antigen staining): 0.047 µg/mL

## B5
[1]
  HCMV inhibition EC50 (TB40-BAC4-IE-GLuc, fibroblasts, immediate-early antigen staining): 0.0252 µg/mL

## B6
[1]
  HCMV inhibition EC50 (TB40-BAC4-IE-GLuc, fibroblasts, immediate-early antigen staining): 0.0311 µg/mL

## B7
[1]
  HCMV inhibition EC50 (TB40-BAC4-IE-GLuc, fibroblasts, immediate-early antigen staining): 0.0328 µg/mL
PDGF-BB
  EC50 for inhibition of PDGF signaling (6 ng/ml PDGF-BB, phospho-Akt ELISA, fibroblasts); the paper says incomplete inhibition precludes a precise value: ~2 µg/mL

## B8
PDGFRα-Fc I139A + Y206A
  Kd: 4.6 nM
PDGFRα-Fc wild type
  Kd: 0.14 nM
PDGFRα-Fc Y206S
  Kd: 7.32 nM
PDGFRα-Fc I139E
  Kd: 4.02 nM
PDGFRα-Fc I139E + Y206S
  Kd: 200 nM
PDGFRα-Fc V242K
  Kd: 92 nM
